Sequences and labels used below:
B1: F6-47 (antibody, V domains shown)
VH: QVQLLESGGNVVQPGRSLSLSCVASGFALKSYAVHWVRQAPGKGLEWVAFVPYDAVTNYYADSVKGRFTVSRDISKNTVNLHMNRLMGEDTAVYFCARGATSGSYSFLGYNYYMDVWGRGTAVTVSS
VL: QSALTQPASVSGSPGQPITISCTGTSSDVGAYTYVSWYQHHPGKAPKLILFDVTDRPSGVSHRFSGSKSGNTASLTISGLQSEDEAEYYCSSYTDRNTIVFGGGTTLTVL
B2: F6-37 (antibody, V domains shown)
VH: QVHLVESGGNVVHPGTSLSLSCAGSGFTFKSHAIHWVRQAPGRGLEWVAFVPYDGATNYYADSLKGRFTVSRDNSRNTVSLHMNRLEGQDTAVYFCARGATSGSYSFLGYNYYMDVWGRGTTVTVSS
VL: B1 VL with P17S, H40Q, H41L, I49L, S61A, S82A, I99L, T106K
B3: F6-49 (antibody, V domains shown)
VH: QVQLVESGGGVVLPGTSLTLSCAASGFTFRHYAIHWVRQTPGGGLEWVAALPYDGSTKYFAESVKDRFTIYRDNSQAAAFLHMSSLTPGDTALYYCARSTYSYEYSFLGYFYYMDVWGRGTSVTVSS
VL: QSALTQPASVSGSPGQSISISCTGTSRDVGAYTYISWSQQHTGQAPKLLIYDVSERPSGVSDRFSGSKTGDTASLAISGLQAEDEAVYYCSSYTDSNTVVFGGGTKVTVL
B4: MEDI8897 (antibody, V domains shown)
VH: QVQLVQSGAEVKKPGSSVMVSCQASGGLLEDYIINWVRQAPGQGPEWMGGIIPVLGTVHYGPKFQGRVTITADESTDTAYMELSSLRSEDTAMYYCATETALVVSETYLPHYFDNWGQGTLVTVSS
VL: DIQMTQSPSSLSAAVGDRVTITCQASQDIVNYLNWYQQKPGKAPKLLIYVASNLETGVPSRFSGSGSGTDFSLTISSLQPEDVATYYCQQYDNLPLTFGGGTKVEIKR
B5: F6-56 (antibody, V domains shown)
VH: QVQLVESGGDVVRPGTSLRLSCAASGFAFRSHALHWVRQAPGKGLEWVSVISYDGGHTNSADSVKGRFTVSRDNSKNILFLQMNSLRIEDTAVYFCARSEGSYRSWPGYFYYMDVWGNGTTVTVSS
VL: QSALTQPASVSGSPGQSITISCIGTSSDVGGYYYVSWYQQHPGKAPKLIIFDVSDRPSGVSSRFSGSQSGNTASLTISGLQAEDEADYYCNSYSSSTTPYVFGSGTKVTVL
B6: F6-65 (antibody, V domains shown)
VH: QVQLVESGGGLVQPGDSLRLSCAASGFTFKSYGLHWVRQAPGKGLEWVAGLSYDGFSGYYADSVKGRFTVSRDNSKNTLYLHINSLRSEDTSIYYCARGGDGEIFSWIGYFYYMDVWGKGTTVTVFS
VL: QSALTQPASVSGSPGQSITISCSGTTNDVGGYDYVSWYQHHPGKAPKLLIYDVSQRPSGVSSRFSGSKSGNTASLTISGLQTDDEAHYYCSSYTITNTLKFGGGTTLTVL

Substitutions are numbered along the chain they refer to.

The target of the first assay is RSV A2 pre-F (RSV A2). Nature of the assay: ELISA. For orientation: ELISA stands for enzyme-linked immunosorbent assay.
The EC50 is the concentration at which the effect is half-maximal. Lower therefore signals greater potency. Turning to B1, the EC50 came to 0.00998 µg/mL.

In the case of B2, the EC50 is 0.0117 µg/mL.

For the molecule B3, the EC50 is 0.0104 µg/mL.

B4: the midpoint of the response, the EC50, lay at 0.0146 µg/mL. This EC50 and that of the molecule before are within 1.5-fold of each other.

In the case of B5, the EC50 is 0.0141 µg/mL.

On to B6, for which the half-maximal effective concentration (EC50) came to 0.00998 µg/mL.

Another assay deals with RSV A2 pre-F (RSV A2). The experiment in a line: BLI.
In general, Kd refers to the constant that tells how readily two partners part at equilibrium. Low readings indicate a tighter complex, high ones a looser complex. On to B4, for which binding was characterised by a dissociation constant (Kd) of 0.379 nM. That is a sub-nanomolar value.

A further assay concerns the target RSV A2 pre-F (RSV A2). Nature of the assay: ELISA. This is another data set of the same source.
The molecule B4 showed an EC50 of 0.0313 µg/mL.

The target of the next assay is RSV A2 pre-F (RSV A2). Nature of the assay: BLI. This is another data set of the same source. (In general: BLI is a label-free optical method that tracks binding on a fibre tip over time.)
The molecule B1 gave a Kd of 0.343 nM. In other words, the sub-nanomolar range.

Regarding B2, binding was put at a Kd of 0.68 nM.

In turn, B3 yielded a Kd of 0.713 nM.

The molecule B4 returned a Kd of 0.122 nM.

In turn, B5 gave a Kd of 0.381 nM.

B6 came in with a Kd of 0.96 nM.

For the origin of these results see patent US20260327294 (published 2026).
